Reference: US11512141B2, “Fibrinogen-like protein 2 (FGL2) monoclonal antibodies and their use in cancer detection and treatment” (Board of Regents, The University of Texas System, priority 2017, dated 2022)

Columns and labels:
FGL2 = test: Cross-species binding of anti-FGL2 antibodies
From the text: In particular embodiments, the anti-FGL2 monoclonal antibodies provided herein are the F48 and F59 antibodies. […] Given that the combination of CD39 and CD73 degrade ATP, ADP, and AMP to adenosine, they can be viewed as “immunological switches” that shift ATP-driven pro-inflammatory immune cell activity toward an anti-inflammatory state mediated by adenosine. CD39 and CD73 both play a role in regulating the function of several immune cell types, including lymphocytes, neutrophils, monocytes/macrophages, dendritic cells, and endothelial cells (Antonioli et al., 2013).

[1] = tested on: CD39 and CD73 regulatory T cell expression; test: Blocking of CD39 and CD73 regulatory T cell expression; type: cell-based
Description: The present studies developed and characterized two anti-FGL2 monoclonal antibodies, F48 and F59. […] The effects of the anti-FGL2 antibodies were evaluated alone and in combination with other anti-cancer therapies such as anti-PDL1 antibody and chemotherapy on several mouse tumor models, including glioblastoma, melanoma, and lung cancer.

OT-I T cells = test: Activation-induced OT-I T cell proliferation; type: cell-based; conditions: OT-I T cells activated with αCD3/CD28, with or without OVA peptide
From the text: OT-I T cells were activated with αCD3/CD28 and then divided into different dishes to check the proliferation in the absence or presence of +OVA peptide (pep), absence or presence FGL2 mAb F48, and co-absence or presence of F48. Cell numbers were counted on different days.

GL261 glioblastoma cells = test: GL261 glioblastoma subcutaneous mouse model, M2 cell population in tumors; type: in vivo, mice; conditions: 100 μg antibody i.v. every 3 days, from 5-7 days after s.c. GL261 inoculation; vs IgG control
From the text: FIGS. 1A-1C: (FIG. 1A) FGL2 expression in normal brain and GBM tissue shown by immunohistochemistry. Increased staining is observed in the glioma tissues. (FIG. 1B) Flow cytometry analysis for the expression of F4/80 and CD206 in glioblastoma tumor cells treated with IgG control or F48 anti-FGL2 antibody. (FIG. 1C) Percentage of M2 macrophages in the glioblastoma tumors treated with IgG control or F48 anti-FGL2 antibody.
To screen for the anti-FGL2 antibody F48 function in mice, GL261 glioblastoma cells (1×10^5 in 30 μL) were injected into the back of mice by subcutaneous injection. The first treatment with antibody comprised 100 μg antibody by intravenous injection starting at about 5-7 days after tumor inoculation. The antibody treatment was repeated every 3 days and the mice were sacrificed at about 14-21 days.

glioma GL261 tumors = test: Mouse glioma GL261 tumor model, alone or with temozolomide; type: in vivo; conditions: 20 mg/kg TMZ + 200 μg antibody
Description: FIGS. 3A-3C: (FIG. 3A) Percent survival of glioma GL261 tumors treated with temozolomide (TMZ) in combination with IgG, F59, anti-PDL1, or F48. […] Western blot analysis of FLG2 expression with various antibodies. FGLS expression is reduced in tumors treated with anti-FGL2 antibodies. (FIG. 3C) Percent survival of mice inoculated with GL261 and treated with IgG control or F59.
Next, the effect of the combination of temozolomide (TMZ) and anti-PDL1+anti-FGL2 antibody was determined on the mouse glioma GL261 tumor model progression in vivo.
Percent survival of glioma GL261 tumors treated with temozolomide (TMZ) in combination with IgG, F59, anti-PDL1, or F48 (FIG. 3).

B1: F48: anti-FGL2 monoclonal antibody of hybridoma clone F48; heavy chain SEQ ID NO:2, light chain SEQ ID NO:4 (antibody, V domains shown)
VH: MGWSCIILFLVATATGVHSQVQLQQPGAELVKPGASVKLSCKASGYTFASYWMQWVKQRPGQGLEWIGEIDPSDSYTNYNQKFKGKATLTVDTSSNTAYMQLSSLTSEDSAVYYCARNGNYYGSTYDYWGQGTTLTVSS
VL: MMSSAQFLGLLLLCFQGTRCDIQMTQTTSSLSASLGDRVTISCRASQDVSNYLNWYQQKPDGSVKLLIYYTSRLHSGVPSRFSGSGSGAHYSLTISNLEQEDIATYFCQQGNTLPPWTFGGGTKLEIK
With B1 the cross-species binding (FGL2) was “share the property of cross-species binding”, the “block CD39 and CD73 regulatory T cell expression” value [1] was “able to block CD39 and CD73 regulatory T cell expression” and the “activation-induced T cell growth (cell numbers)” value (OT-I T cells) was “promote activation-induced T cell growth”. The “percentage of M2 cell population in the tumors” value (GL261 glioblastoma cells) was “suppression of the percentage of M2 cell population in the tumors” and the percent survival (glioma GL261 tumors) was “significantly improve glioma survival”.
